What was measured:
[1] = molecular target: human CD28, full length, expressed on cells (CD28+293T cells) (human) (UniProt P10747); test: cell-based or functional assay
T61A = molecular target: T1, T61A; test: flow cytometry on 293T cells expressing B7-H2-GFP mutants; normalised to wild type B7-H2 (100%) and vector control (0%)
T1 sequence (chain, by the resolver, C terminal GFP fusion, not carried in the letters): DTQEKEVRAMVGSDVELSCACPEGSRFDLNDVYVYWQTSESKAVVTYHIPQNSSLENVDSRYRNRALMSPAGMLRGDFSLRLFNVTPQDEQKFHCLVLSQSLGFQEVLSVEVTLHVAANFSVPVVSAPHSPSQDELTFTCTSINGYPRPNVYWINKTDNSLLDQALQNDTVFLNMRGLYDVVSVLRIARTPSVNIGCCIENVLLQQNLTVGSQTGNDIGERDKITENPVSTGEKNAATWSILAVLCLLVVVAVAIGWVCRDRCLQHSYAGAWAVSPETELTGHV

B7-DC = molecular target: T2, B7-DC (Mus musculus, UniProt Q9WUL5); test: CDS well image, 293T cells transfected with the mouse gene, stained with the mouse fusion protein
T2 sequence (membrane protein, looked up): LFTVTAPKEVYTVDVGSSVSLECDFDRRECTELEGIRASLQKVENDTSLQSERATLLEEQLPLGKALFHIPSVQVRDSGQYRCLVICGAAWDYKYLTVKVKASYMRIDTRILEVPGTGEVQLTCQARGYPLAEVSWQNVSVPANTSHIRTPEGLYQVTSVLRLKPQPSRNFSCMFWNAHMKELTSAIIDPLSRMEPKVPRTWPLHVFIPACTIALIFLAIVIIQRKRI

PD-1 = molecular target: T3, PD-1 (Mus musculus, UniProt Q02242); test: as above
T3 sequence (membrane protein, looked up): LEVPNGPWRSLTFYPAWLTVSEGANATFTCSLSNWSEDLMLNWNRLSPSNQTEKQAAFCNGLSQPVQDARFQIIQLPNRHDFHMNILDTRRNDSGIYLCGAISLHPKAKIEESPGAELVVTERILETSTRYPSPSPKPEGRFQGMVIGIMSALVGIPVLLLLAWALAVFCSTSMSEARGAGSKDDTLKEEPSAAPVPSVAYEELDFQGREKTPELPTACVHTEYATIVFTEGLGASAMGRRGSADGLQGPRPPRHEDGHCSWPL

ICOS = molecular target: T4, ICOS (Mus musculus, UniProt Q9WVS0); test: as above
T4 sequence (membrane protein, looked up): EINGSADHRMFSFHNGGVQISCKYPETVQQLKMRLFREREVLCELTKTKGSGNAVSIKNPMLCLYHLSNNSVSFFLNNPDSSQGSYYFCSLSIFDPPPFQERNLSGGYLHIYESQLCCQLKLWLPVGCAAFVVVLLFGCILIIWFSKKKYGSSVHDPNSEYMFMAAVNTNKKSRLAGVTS

B7-2 = molecular target: T5, B7-2; test: as above
T5 chain: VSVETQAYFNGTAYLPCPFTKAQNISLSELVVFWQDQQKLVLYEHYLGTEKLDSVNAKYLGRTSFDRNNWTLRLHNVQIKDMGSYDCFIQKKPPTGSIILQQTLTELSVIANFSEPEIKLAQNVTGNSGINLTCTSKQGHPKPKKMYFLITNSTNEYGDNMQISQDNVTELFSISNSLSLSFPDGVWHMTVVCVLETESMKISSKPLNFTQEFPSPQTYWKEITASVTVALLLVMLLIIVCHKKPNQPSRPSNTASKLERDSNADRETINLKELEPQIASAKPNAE

[2] = molecular target: T6, mouse B7-H2, full length, expressed on 293T cells (mouse, UniProt Q9JHJ8 44-322); test: as above
T6 construct: whole, on cells
T6 sequence (looked up): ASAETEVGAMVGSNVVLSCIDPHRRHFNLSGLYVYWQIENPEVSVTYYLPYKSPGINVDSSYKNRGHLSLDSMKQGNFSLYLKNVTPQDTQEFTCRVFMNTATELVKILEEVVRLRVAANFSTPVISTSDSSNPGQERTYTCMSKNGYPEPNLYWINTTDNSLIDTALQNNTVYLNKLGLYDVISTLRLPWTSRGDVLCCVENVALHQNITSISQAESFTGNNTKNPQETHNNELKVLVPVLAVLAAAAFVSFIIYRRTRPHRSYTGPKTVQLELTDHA

B7-1 = molecular target: T7, B7-1; test: as above
T7 chain: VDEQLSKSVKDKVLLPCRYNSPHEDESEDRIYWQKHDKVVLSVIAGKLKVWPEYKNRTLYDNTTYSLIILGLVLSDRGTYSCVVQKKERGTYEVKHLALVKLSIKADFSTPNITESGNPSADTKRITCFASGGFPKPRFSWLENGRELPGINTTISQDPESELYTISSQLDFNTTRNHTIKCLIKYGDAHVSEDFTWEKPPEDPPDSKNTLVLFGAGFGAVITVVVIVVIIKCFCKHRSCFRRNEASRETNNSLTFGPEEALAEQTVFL

[3] = molecular target: T8, mouse B7-H2/hB7-H2IgV chimera, expressed on 293T cells (human; mouse, UniProt Q9JHJ8 150-322); test: flow cytometry, 293T cells expressing the mouse B7-H2/hB7-H2IgV chimera (mB7-H2/hB7-H2IgV+ 293T)
T8 construct: range 150-C-terminus; Mouse B7-H2 Ig V region (Met1-Val149) replaced with the corresponding human region (Met1-Gln123) in the mouse B7-H2 full length gene; also called chimeric gene product
T8 sequence: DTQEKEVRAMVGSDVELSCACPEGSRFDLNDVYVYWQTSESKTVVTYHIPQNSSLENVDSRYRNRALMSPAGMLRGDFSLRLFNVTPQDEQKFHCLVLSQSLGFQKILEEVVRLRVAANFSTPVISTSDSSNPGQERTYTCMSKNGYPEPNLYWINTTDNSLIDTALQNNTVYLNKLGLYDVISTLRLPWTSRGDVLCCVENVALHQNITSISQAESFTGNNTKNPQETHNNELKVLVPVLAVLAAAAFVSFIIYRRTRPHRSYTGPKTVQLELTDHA
Experimental: FIGS. 19A-19B. […] The results were analyzed by flow cytometry.

CD28 = molecular target: T9, CD28 (Mus musculus, UniProt P31041); test: CDS well image, 293T cells transfected with the mouse gene, stained with the mouse fusion protein
T9 sequence (membrane protein, looked up): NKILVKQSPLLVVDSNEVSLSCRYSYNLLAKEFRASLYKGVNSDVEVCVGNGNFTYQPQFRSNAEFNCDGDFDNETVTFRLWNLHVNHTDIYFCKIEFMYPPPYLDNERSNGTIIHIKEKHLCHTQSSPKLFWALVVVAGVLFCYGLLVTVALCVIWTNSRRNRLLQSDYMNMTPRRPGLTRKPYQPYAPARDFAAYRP

B7-H1 = B7-H1 (Mus musculus, UniProt Q9EP73); test: as above
B7-H1, sequence (Q9EP73 19-290 limits assumed): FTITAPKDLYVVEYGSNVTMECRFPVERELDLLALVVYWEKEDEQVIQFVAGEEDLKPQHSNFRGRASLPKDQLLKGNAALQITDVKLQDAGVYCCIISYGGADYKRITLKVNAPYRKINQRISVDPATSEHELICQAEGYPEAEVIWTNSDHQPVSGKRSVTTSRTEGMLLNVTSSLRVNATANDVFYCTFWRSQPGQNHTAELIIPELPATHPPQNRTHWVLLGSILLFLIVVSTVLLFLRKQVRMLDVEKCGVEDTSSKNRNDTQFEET

CTLA-4 = CTLA-4 (Mus musculus, UniProt P09793); test: as above
[4] = molecular target: T10, human B7-H7Ig fusion protein (human, UniProt Q9UM44 23-344); test: CDS screen: 384-well plate of 293T cells, one human transmembrane gene a well; B7-H7Ig plus anti-mIg FMAT blue; total fluorescence per well
T10 construct: not shown: Ig Fc tag; made from pMIgV or pHIgV plasmid and detected with anti-mouse Ig
T10 sequence: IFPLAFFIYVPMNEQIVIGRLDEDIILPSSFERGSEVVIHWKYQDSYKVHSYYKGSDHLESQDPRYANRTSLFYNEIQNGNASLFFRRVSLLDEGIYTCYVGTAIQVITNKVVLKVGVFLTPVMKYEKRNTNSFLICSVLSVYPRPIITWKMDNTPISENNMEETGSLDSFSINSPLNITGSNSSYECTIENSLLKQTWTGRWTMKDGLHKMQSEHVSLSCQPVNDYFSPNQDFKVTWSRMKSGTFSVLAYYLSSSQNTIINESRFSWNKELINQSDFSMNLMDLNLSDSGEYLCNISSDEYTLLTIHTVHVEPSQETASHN

human CD28, full length, expressed on cells (CD28+293T cells) (human), sequence (P10747 19-220): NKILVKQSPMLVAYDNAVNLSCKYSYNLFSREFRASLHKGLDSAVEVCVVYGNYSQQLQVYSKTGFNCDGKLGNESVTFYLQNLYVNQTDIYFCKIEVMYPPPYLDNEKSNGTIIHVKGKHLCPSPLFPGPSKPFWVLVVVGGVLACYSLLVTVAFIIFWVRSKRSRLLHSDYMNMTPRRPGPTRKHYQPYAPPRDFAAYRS

Q: For “mouse anti-human CD28 mAb CD28.6 (blocking) (antibody)”, which tetanus toxoid-elicited proliferation of memory T cells; inhibition [1] is on record?
A: The tetanus toxoid-elicited proliferation of memory T cells; inhibition was greater than 50%.

Q: With “human CTLA4Ig fusion protein (from UniProt P16410 37-162) (Fc fusion)” as the molecule, how does the Binding Percentage% (T61A) read?
A: The Binding Percentage% was 32.1%.

B1: B7-1Ig (Fc fusion)
chain: VDEQLSKSVKDKVLLPCRYNSPHEDESEDRIYWQKHDKVVLSVIAGKLKVWPEYKNRTLYDNTTYSLIILGLVLSDRGTYSCVVQKKERGTYEVKHLALVKLSIKADFSTPNITESGNPSADTKRITCFASGGFPKPRFSWLENGRELPGINTTISQDPESELYTISSQLDFNTTRNHTIKCLIKYGDAHVSEDFTWEKPPEDPPDSKN
notes: also called mouse B7-1Ig fusion protein; not shown: Ig (Fc) part and any linker of the R&D Systems fusion protein
Q: Does B1 bind (B7-DC)?
A: Result: no binding

Q: Does B1 bind (PD-1)?
A: Result: no binding

Q: Does B1 bind (ICOS)?
A: Result: no binding

Q: Does B1 bind (B7-2)?
A: Result: no binding

Q: Does B1 bind [2]?
A: Result: no binding

Q: Does B1 bind (B7-1)?
A: Result: no binding

B2: mouse CD28Ig fusion protein (Fc fusion, UniProt P31041 20-149, looked up)
chain: NKILVKQSPLLVVDSNEVSLSCRYSYNLLAKEFRASLYKGVNSDVEVCVGNGNFTYQPQFRSNAEFNCDGDFDNETVTFRLWNLHVNHTDIYFCKIEFMYPPPYLDNERSNGTIIHIKEKHLCHTQSSPK
notes: Bought from R&D Systems; Ig (Fc) part not given
Q: Does B2 bind [3]?
A: Result: binds

Q: Does B2 bind (B7-DC)?
A: Result: no binding

Q: Does B2 bind (PD-1)?
A: Result: no binding

Q: Does B2 bind (ICOS)?
A: Result: no binding

Q: Does B2 bind (CD28)?
A: Result: no binding

Q: Does B2 bind (B7-H1)?
A: Result: no binding

Q: Does B2 bind [2]?
A: Result: no binding

Q: Does B2 bind (CTLA-4)?
A: Result: no binding

B3: B7-2Ig (Fc fusion)
chain: VSVETQAYFNGTAYLPCPFTKAQNISLSELVVFWQDQQKLVLYEHYLGTEKLDSVNAKYLGRTSFDRNNWTLRLHNVQIKDMGSYDCFIQKKPPTGSIILQQTLTELSVIANFSEPEIKLAQNVTGNSGINLTCTSKQGHPKPKKMYFLITNSTNEYGDNMQISQDNVTELFSISNSLSLSFPDGVWHMTVVCVLETESMKISSKPLNFTQEFPSPQTYWK
notes: also called mouse B7-2Ig fusion protein; not shown: Ig (Fc) part and any linker of the R&D Systems fusion protein
Q: Does B3 bind (B7-DC)?
A: Result: no binding

Q: Does B3 bind (PD-1)?
A: Result: no binding

Q: Does B3 bind (ICOS)?
A: Result: no binding

Q: Does B3 bind (CD28)?
A: Result: binds

Q: Does B3 bind (B7-H1)?
A: Result: no binding

Q: Does B3 bind (B7-2)?
A: Result: no binding

Q: Does B3 bind [2]?
A: Result: no binding

Q: Does B3 bind (CTLA-4)?
A: Result: binds

Q: Does B3 bind (B7-1)?
A: Result: no binding

B4: human B7-H7CR, full length, expressed on 293T cells (B7-H7CR+293T cells) (receptor)
chain: LSVQQGPNLLQVRQGSQATLVCQVDQATAWERLRVKWTKDGAILCQPYITNGSLSLGVCGPQGRLSWQAPSHLTLQLDPVSLNHSGAYVCWAAVEIPELEEAEGNITRLFVDPDDPTQNRNRIASFPGFLFVLLGVGSMGVAAIVWGAWFWGRRSCQQRDSGNSPGNAFYSNVLYRPRGAPKKSEDCSGEGKDQRGQSIYSTSFPQPAPRQPHLASRPCPSPRPCPSPRPGHPVSMVRVSPRPSPTQQPRPKGFPKVGEE
notes: This id also stands for B7-H7CR on human CD4+ T cells in the functional rows; also called TMIGD2; B7-H7R
Q: Does B4 bind [4]?
A: Result: binds

Reference: patent US20120219559A1 (Johns Hopkins, published 2012)
